Assay results as given in patent publication US20120232127A1, “REGULATION OF NEUROTRANSMITTER RELEASE THROUGH ANION CHANNELS” (KOREA INSTITUTE OF SCIENCE AND TECHNOLOGY, priority 2008, published 2012).

Tests used:
mBest1 [1] = biological target: T1, mBest1 (Mus musculus, UniProt O88870); test: CAAC current in astrocytes expressing shRNA; assay type: cell-based; parameters: endogenous in cells; host or cells: cultured mouse cortical astrocytes
T1 sequence (O88870 1-551): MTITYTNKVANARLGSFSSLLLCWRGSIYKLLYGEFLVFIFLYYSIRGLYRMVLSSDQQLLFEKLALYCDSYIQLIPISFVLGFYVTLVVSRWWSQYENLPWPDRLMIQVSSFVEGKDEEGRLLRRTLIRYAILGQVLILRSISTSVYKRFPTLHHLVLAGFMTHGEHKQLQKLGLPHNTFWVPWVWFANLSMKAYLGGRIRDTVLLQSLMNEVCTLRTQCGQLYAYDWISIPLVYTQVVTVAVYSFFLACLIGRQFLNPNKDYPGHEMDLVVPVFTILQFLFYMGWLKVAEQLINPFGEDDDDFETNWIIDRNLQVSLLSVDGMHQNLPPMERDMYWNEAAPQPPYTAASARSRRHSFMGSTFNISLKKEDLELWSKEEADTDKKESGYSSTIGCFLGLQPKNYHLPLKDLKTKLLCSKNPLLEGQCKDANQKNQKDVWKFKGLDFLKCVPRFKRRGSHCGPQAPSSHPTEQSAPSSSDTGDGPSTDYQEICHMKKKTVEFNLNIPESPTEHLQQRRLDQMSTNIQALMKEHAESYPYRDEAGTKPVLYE
Protocol: For plasmid-based shRNA expression, the following complementary oligonucleotides were annealed and inserted into the HindIII/BglII sites of pSUPER-GFP vector (Oligo Engine):
The efficacy of the construct to interfere with mBest1 expression was tested against heterologously expressed mBest1 in HEK293T cells (ATCC) by measuring specific CAAC currents. For lentivirus-based shRNA expression, lentiviral vector containing mBest1 gene was constructed by inserting synthetic double-strand oligonucleotides 5′-[…] […]-3′ (SEQ ID NO: 30) into pstI-XbaI restriction enzyme sites of shLenti2.4 CMV lentiviral vector (Macrogen) and verified by sequencing. Scrambled oligonucleotides inserted shLenti construct (Macrogen) was used as control. […]
(§1) Patch pipettes which have 3-6MΩ of resistance are filled with the standard intracellular solution. […] The concentration of free [Ca^2+]i in the solution was determined (Kuruma, A. & Hartzell, H. C. Bimodal control of a Ca(^2+)-activated Cl(−) channel by difference Ca(^2+) signals. J Gen Physiol 115, 59-80 (2000), which is hereby incorporated by reference for all purposes as if fully set forth herein). […]

mBest1 [2] = biological target: T1, mBest1; test: Whole cell patch clamp of mBest1-expressing HEK293T cells; assay type: cell-based; parameters: the full-length mBest1 was cloned from both astrocyte and testis cDNAs and transiently expressed in HEK293T cells; expressed in transfected cells; host or cells: HEK293T cells (ATCC); details: HEK293T cells transfected with mBest1 cDNA
Protocol: In order to express mBest1 in mammalian cells, an mBest1 full-length fragment from pGEM-T easy plasmid (6.65 kb, Promega) was subcloned into pcDNA 3.1 (Invitrogen) by HindIII site and NotI site. The plasmid constructs were transfected into HEK293T cells (ATCC) using Effectene transfection reagent (Qiagen). To carry out whole cell patch clamp recordings, 1.5˜2 μg of plasmid, which was obtained by cloning mBest1 in cDNA extracted from mouse brain or cultured astrocytes, and then, subcloning into pcDNA3.1 plasmid (Invitrogen), plus pEGFP-N1 (Clontech) were used to transfect one 35 mm culture dish. One day after transfection, cells were replated onto glass coverslips for electrophysiological recording. Transfected cells were identified by EGFP fluorescence and used for patch clamp experiments within 24-36 hrs.
as §1, with “solution. Current voltage curves were established by applying 100- or 200-ms-duration voltage ramps from −100 to +100 mV. The ramp duration was 10 s.” for “solution.”

B1: mBest1 shRNA: mBest1-specific short hairpin RNA, SEQ ID NO: 3 and 4 (lentiviral: SEQ ID NO: 30), nucleotides 563-582 of mBest1 (nucleic acid)
chain 1: GATCCCCTTGCCAACTTGTCAATGAATTCAAGAGATTCATTGACAAGTTGGCAATTTTTA
chain 2: GGGAACGGTTGAACAGTTACTTAAGTTCTCTAAGTAACTGTTCAACCGTTAAAAATTCGA
- CAAC current in astrocyte (mBest1 [1]): 49.7±8.3 pA
- knock-down of mBest1 channel (mBest1 [2]): specific and efficient knock-down
